Legend:
[1] = system: locally advanced or metastatic urothelial cancer; test: EV-201 single-arm trial, efficacy (BICR, RECIST v1.1); assay type: in vivo, human
Method: The efficacy of PADCEV was evaluated in EV-201 (NCT03219333), single-arm, multicenter trial that enrolled 125 patients with locally advanced or metastatic urothelial cancer who received prior treatment with a PD-1 or PD-L1 inhibitor and platinum-based chemotherapy. Patients were excluded if they had active CNS metastases, ongoing sensory or motor neuropathy >Grade 2, or uncontrolled diabetes defined as hemoglobin A1C (HbA1c)≥8% or HbA1c≥7% with associated diabetes symptoms.
The median age was 69 years (range: 40 to 84 years), 70% were male, and 85% were Caucasian. […] Ninety percent of patients had visceral metastases including 40% with liver metastases. Two-thirds of patients had pure transitional cell carcinoma (TCC) histology; 33% had TCC with other histologic variants. An immunohistochemistry clinical trial assay was used to assess patients with tumor tissue available, and detected Nectin-4 expression in all patients tested (n=120). The median number of prior systemic therapies was 3 (range: 1 to 6). Forty-six percent of patients received prior PD-1 inhibitor, 42% received prior PD-L1 inhibitor, and an additional 13% received both PD-1 and PD-L1 inhibitors. Sixty-six percent of patients received prior cisplatin-based regimens, 26% received prior carboplatin-based regimens, and an additional 8% received both cisplatin and carboplatin-based regimens.
The major efficacy outcome measures were confirmed objective response rate (ORR) and duration of response (DOR) assessed by blinded independent central review (BICR) using RECIST v1.1.

EV-201 adverse reactions = assay type: in vivo, human
Method: (§1) The data described in this section reflect exposure to PADCEV from EV-201, a single arm study in patients (n=125) with locally advanced or metastatic urothelial cancer who had received prior treatment with a PD-1 or PD-L1 inhibitor and platinum-based chemotherapy. Patients received PADCEV 1.25 mg/kg on Days 1, 8 and 15 of a 28-day cycle until disease progression or unacceptable toxicity. The median duration of exposure to PADCEV was 4.6 months (range: 0.5-15.6).

[2] = EV-201 laboratory abnormalities; assay type: in vivo, human
Method: as §1, with “0.5-15.6). […]” for “0.5-15.6).”

[3] = Outcome of adverse reactions under the dose modification schedule; assay type: in vivo, human
From the text: The results based on the dose modification schedule as provided are as follows.

pregnant rats = test: Rat embryo-fetal development study; assay type: in vivo
From the text: Additionally, skeletal anomalies (asymmetric, fused, incompletely ossified, and misshapen sternebrae, misshapen cervical arch, and unilateral ossification of the thoracic centra) and decreased fetal weight were observed.

[4] = Cardiac electrophysiology (QTc); assay type: in vivo, human; conditions: at the recommended dose; large = >20 msec
rats = test: Repeat-dose toxicology studies in rats; assay type: in vivo, rat
[5] = Storage of reconstituted vial and prepared infusion bag; assay type: physicochemical
Method: 7. Based upon the calculated dose amount, the reconstituted solution from the vial(s) should be added to the infusion bag immediately. […] If not used immediately, reconstituted vials may be stored for up to […] in refrigeration at 2° C. to 8° C. (36° F. to 46° F.). […] Discard unused vials with reconstituted solution beyond the recommended storage time.
14. If the infusion is not administered immediately, the prepared infusion bag should not be stored longer than […] at 2° C. to 8° C. (36° F. to 46° F.).

[6] = EV-201, patients who experienced rash
[7] = EV-201, denominator 121 or 122 patients
[8] = among patients who experienced hyperglycemia
[9] = among patients who experienced it, dose modification schedule

## enfortumab vedotin-ejfv [PADCEV]
[1]; EV-201
  median time to response: 1.84 months
[1]; EV-201, BICR, median follow-up 10.2 months
  Median Duration of Response: 7.6 months
[1]; EV-201, n = 125, BICR
  Complete Response Rate (CR): 12%
  Partial Response Rate (PR): 32%
[1]; EV-201, n = 125, BICR, 1.25 mg/kg Days 1, 8, 15 of 28-day cycle
  Confirmed ORR: 44%
EV-201 adverse reactions; EV-201
  herpes zoster: 3%
  infusion site extravasation: 2%
  median time to onset of Grade >=2 peripheral neuropathy: 3.8 months
  median time to onset of severe skin reactions: 0.8 months
  peripheral neuropathy: complete resolution at last evaluation: 19%
  peripheral neuropathy: partial improvement at last evaluation: 26%
EV-201 adverse reactions; EV-201, n = 125
  Alopecia, Grade >= 3: 0%
  Any adverse reaction, All Grades: 100%
  Any adverse reaction, Grade >= 3: 73%
  Decreased appetite, Grade >= 3: 2%
  Dry skin, Grade >= 3: 0%
  Dysgeusia, Grade >= 3: 0%
  Nausea, Grade >= 3: 3%
  Peripheral neuropathy (grouped term), Grade >= 3: 4%
  Pruritus, All Grades: 26%
  Pruritus, Grade >= 3: 2%
  Vomiting, All Grades: 18%
  Vomiting, Grade >= 3: 2%
  adverse reactions leading to discontinuation: 16%
  adverse reactions leading to dose interruption: 64%
  adverse reactions leading to dose reduction: 34%
  dose interruption due to fatigue: 6%
  dose interruption due to peripheral neuropathy: 18%
  dose interruption due to rash: 9%
  dose reduction due to fatigue: 4%
  dose reduction due to peripheral neuropathy: 12%
  dose reduction due to rash: 6%
  fatal adverse reaction: acute respiratory failure: 0.8%
  fatal adverse reaction: aspiration pneumonia: 0.8%
  fatal adverse reaction: cardiac disorder: 0.8%
  fatal adverse reaction: sepsis: 0.8%
  fatal adverse reactions: 3.2%
  peripheral neuropathy leading to treatment discontinuation: 6%
  serious adverse reaction: diarrhea: 4%
  serious adverse reaction: fatigue: 2%
  serious adverse reaction: nausea: 2%
  serious adverse reaction: rash: 3%
  serious adverse reaction: vomiting: 2%
EV-201 adverse reactions; EV-201, n = 125, 1.25 mg/kg Days 1, 8, 15 of 28-day cycle
  serious adverse reactions: 46%
EV-201 adverse reactions; [6]
  rash: complete resolution: 65%
  rash: partial improvement: 22%
EV-201 adverse reactions; EV-201, baseline hemoglobin A1C >=8% excluded
  patients who developed Grade 3-4 hyperglycemia: 8%
[2]; [7]
  Creatinine increased, Grade 3-4: 2%
  Creatinine increased, Grades 2-4: 20%
  Glucose increased, Grade 3-4: 8%
  Hemoglobin decreased, Grade 3-4: 10%
  Hemoglobin decreased, Grades 2-4: 34%
  Leukocytes decreased, Grade 3-4: 4%
  Leukocytes decreased, Grades 2-4: 14%
  Lipase increased, Grade 3-4: 9%
  Lipase increased, Grades 2-4: 14%
  Lymphocytes decreased, Grade 3-4: 10%
  Lymphocytes decreased, Grades 2-4: 32%
  Neutrophils decreased, Grade 3-4: 5%
  Neutrophils decreased, Grades 2-4: 14%
  Phosphate decreased, Grade 3-4: 10%
  Phosphate decreased, Grades 2-4: 34%
  Sodium decreased, Grade 3-4: 8%
  Sodium decreased, Grades 2-4: 8%
  Urate increased, Grade 3-4: 7%
  Urate increased, Grades 2-4: 7%
[2]; EV-201, fasting glucose not measured, 23 patients
  patients with non-fasting glucose >160-250 mg/dL: ^†CTCAE Grade 2 is defined as fasting glucose >160-250 mg/dL. Fasting glucose levels were not measured in EV-201. However, 23 (19%) patients had non-fasting glucose >160-250 mg/dL.
[3]; [8]
  hyperglycemia: complete resolution: 57%
  hyperglycemia: some improvement: 14%
[3]; [9]
  rash: complete resolution: 73%
  rash: patients with resolution or improvement: 93%
  rash: some improvement: 20%
[3]; among patients who experienced peripheral neuropathy
  peripheral neuropathy: resolution or Grade 1 after the dose modification: 76%
[3]; of those with ongoing rash
  ongoing rash that was Grade 1: 75%
Pregnant rats; maternal exposures approximately similar to exposure at recommended human dose of 1.25 mg/kg
  findings in pregnant rats dosed during organogenesis: maternal toxicity, embryo-fetal lethality, structural malformations and skeletal anomalies
Pregnant rats; rat pilot embryo-fetal development study
  skeletal anomalies and decreased fetal weight: observed
Pregnant rats; rat, 5 mg/kg
  exposure at 5 mg/kg relative to the recommended human dose: approximately 3 times the exposure at the recommended human dose
Pregnant rats; rat, gestation day 6 and 13, 2 mg/kg, approximately similar to exposure at recommended human dose
  outcome at 2 mg/kg: maternal toxicity, embryo-fetal lethality and structural malformations
Pregnant rats; rat, gestation day 6 and 13, 5 mg/kg
  outcome at the maternally toxic dose of 5 mg/kg: complete litter loss in all pregnant rats
[4]
  QTc prolongation: no large QTc prolongation
rats
  potential indicated by repeat-dose toxicity studies in rats: impair male reproductive function and fertility
rats; up to 13 weeks
  reversal of testes and epididymis findings by end of recovery period: did not reverse
rats; up to 13 weeks, doses >=2 mg/kg, exposures similar to recommended human dose
  findings in testes and epididymis: decreases in testes and epididymis weights, seminiferous tubule degeneration, spermatid/spermatocyte depletion in the testes and cell debris, sperm granuloma and hypospermia/abnormal spermatids in the epididymis
[5]; 2° C. to 8° C.
  storage time of prepared infusion bag: ≤ 8 h
[5]; refrigeration at 2° C. to 8° C.
  storage time of reconstituted vials: up to 4 hours
